This assay has as its target TcpP-HSV (wild type, HSV epitope-tagged TcpP) (V. cholerae) (UniProt P29485). As to the kind of experiment: […], in 20 mM HEPES pH 7.0, 150 mM NaCl) […].
UniProt P29485, sequence (P29485 whole entry): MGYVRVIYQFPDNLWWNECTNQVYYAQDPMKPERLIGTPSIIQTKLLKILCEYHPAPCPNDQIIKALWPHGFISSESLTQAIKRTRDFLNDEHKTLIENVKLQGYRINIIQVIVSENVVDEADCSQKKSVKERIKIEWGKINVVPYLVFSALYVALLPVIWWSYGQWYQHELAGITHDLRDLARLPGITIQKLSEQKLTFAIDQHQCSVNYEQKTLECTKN

With “ToxR-P101L (chromosomal toxR locus) (natural protein)”, the percent of wild-type levels of interaction (% of wild-type) was found to be 15.

Values taken from article PMC3124598.
